Measured values as given in patent US8129349B2, “Treatment of disease by inducing cell apoptosis” (The Regents of the University of California, priority 2000, dated 2012).

Molecular target: T1, caspase 8 (Homo sapiens, UniProt Q14790)
T1 construct: 21 amino acid linker (vector-derived) (N); purchased Alexis Biochemicals 201-041-C005
Test: In vitro self-activation of recombinant caspase 8
Format: biochemical
Settings: peptides 200 μM, 2 h, procaspase 8 (0.2 μg), colorimetric substrate
Method: FIG. 5 provides results showing the direct association of C/EBPβ-Glu^217 with procaspases 1 and 8. […] Enzyme activity was measured in the absence (control) or presence of C/EBPβ peptides (200 μM) for 2 h, using a procaspases 1 (1U) (not shown) and 8 (0.2 μg) activity assay. Values are presented as the mean±one half the range of duplicates. Panel C provides results for cells cultured on a collagen type I matrix and incubated with the indicated cell permeant, purified synthetic N-acetyl, C-aldehyde C/EBPβ tetra-peptides (10 μM) or with recombinant C/EBPβ-HA peptides as indicated, together with the Chariot reagent (Active Motif) for 4 h. Control cells were incubated without peptides (P<0.05 for all peptides containing Ala^217).
FIG. 7 provides data showing that phosphorylation of rat C/EBPβ on Ser^105 prevents stellate cell apoptosis. Panel A provides results for mouse stellate cells transfected as described herein (See, FIG. 2), with mutant p90RSK or treated with lactacystin (10 μM) (closed bars), and co-transfected with CMV-rC/EBPβ-Asp^105 (1 μg each) (open bars) as indicated. Annexin-V-PE binding was determined as described for FIG. 2 (P<0.05 for rC/EBPβ-Asp^105). Panel B provides results of an annexin-V-PE assay for stellate cells from C/EBPβ^+/+ (closed circles) and rC/EBPβ-Asp^105 transgenic (open circles) mice treated with lactacystin (0-30 μM). The annexin-V-PE assay was performed 6 hours after treatment began (P<0.05 for rC/EBPβ-Asp^105 transgenic mice for 5-25 μM lactacystin). Panel C provides results for rC/EBPβ-HA constructs (0.3 μg) transfected into rat stellate cells. The expressed peptides were immunoprecipitated with anti-HA antibodies. Using a specific antibody, rCEBPβ-PSer^105 was detected only in cells that expressed wild-type rC/EBPβ. […] Reciprocal immunoprecipitations confirmed these associations. […] Enzyme activity was measured using a colorimetric substrate as described in the Examples. […]
Purified recombinant C/EBPβ peptides, expressed as known in the art (See, Descombes et al., supra; and Buck et al. (1994), supra), and purified synthetic N-acetyl, C-aldehyde tetrapeptides (200 μM) (American Peptide Company) were assayed for their ability to inhibit the activity of purified human recombinant caspases 1 (catalogue # 201-056) and 8 (catalogue # 201-041-C005) (Alexis Biochemicals). […] Caspase activity was determined by the release of the p-nitroaniline colorimetric (Alexis Biochemicals) substrate for caspase 1 (catalogue # 260-026) or 8 (catalogue # 260-045) within the linear part of the kinetic assay (Thornberry et al. (1997), supra; Stennicke and Salvesen, supra). […]

T1 sequence (Q14790 217-479): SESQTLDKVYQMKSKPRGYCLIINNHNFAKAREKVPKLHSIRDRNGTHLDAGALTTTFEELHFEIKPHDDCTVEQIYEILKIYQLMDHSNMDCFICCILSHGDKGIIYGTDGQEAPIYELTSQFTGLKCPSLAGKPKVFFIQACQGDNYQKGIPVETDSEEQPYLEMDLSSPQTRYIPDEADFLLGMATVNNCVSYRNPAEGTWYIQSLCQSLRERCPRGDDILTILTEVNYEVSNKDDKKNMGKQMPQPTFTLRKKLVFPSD

B1: C/EBPβ-Glu^217: modified murine C/EBPβ with mutation of Thr^217 to glutamic acid (SEQ ID NO:4), phosphorylation mimic (protein, listed as Mus musculus)
chain: MHRLLAWDAACLPPPPAAFRPMEVANFYYEPDCLAYGAKAARAAPRAPAAEPAIGEHERAIDFSPYLEPLAPAADFAAPAPAHHDFLSDLFADDYGAKPSKKPADYGYVSLGRAGAKAAPPACFPPPPPAALKAEPGFEPADCKRADDAPAMAAGFPFALRAYLGYQATPSGSSGSLSTSSSSSPPGTPSPADAKAAPAACFAGPPAAPAKAKAKKZVDKLSDEYKMRRERNNIAVRKSRDKAKMRNLETQHKVLELTAENERLQKKVEQLSRELSTLRNLFKQLPEPLLASAGHC
- Inhibition of in vitro self-activation of caspase 8: inhibited the in vitro self-activation
